Laboratory results published in patent publication US5858678, “Apoptosis-regulating proteins” (St. Louis University, dated 1999).

T1: yeast SNF1 protein bait (yeast, UniProt P06782)
T1 sequence: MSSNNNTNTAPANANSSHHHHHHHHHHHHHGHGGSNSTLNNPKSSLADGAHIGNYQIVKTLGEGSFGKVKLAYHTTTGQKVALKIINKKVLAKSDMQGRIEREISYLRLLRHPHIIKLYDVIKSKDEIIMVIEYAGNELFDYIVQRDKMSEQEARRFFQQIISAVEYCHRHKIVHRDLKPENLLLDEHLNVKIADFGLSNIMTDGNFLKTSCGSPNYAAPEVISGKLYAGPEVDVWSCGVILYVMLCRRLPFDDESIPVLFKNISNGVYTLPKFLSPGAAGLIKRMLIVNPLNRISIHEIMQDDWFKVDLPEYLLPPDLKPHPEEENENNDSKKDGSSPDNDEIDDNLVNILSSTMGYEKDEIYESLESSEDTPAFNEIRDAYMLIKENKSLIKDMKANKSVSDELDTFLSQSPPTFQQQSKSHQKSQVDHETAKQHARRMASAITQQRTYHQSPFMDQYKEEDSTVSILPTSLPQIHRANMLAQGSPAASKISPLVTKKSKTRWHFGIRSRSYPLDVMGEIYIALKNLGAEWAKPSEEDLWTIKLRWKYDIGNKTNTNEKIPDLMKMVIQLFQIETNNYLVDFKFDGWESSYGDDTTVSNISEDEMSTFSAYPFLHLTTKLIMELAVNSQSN


Tests used:
yeast SNF1 protein bait = biological target: T1, yeast SNF1 protein bait; experiment: yeast two-hybrid in strain Y153, X-gal (W = White)
Description: To determine the specificity of the two hybrid interaction, the three clones, 22, 44 and 91, were tested against baits expressing several heterologous proteins (Table 1). Among the various heterologous protein baits used, the adenovirus E3 11.6 kD protein is of particular interest as that protein localizes on the nuclear envelope region and has an internal hydrophobic domain like the E1B 19 kD protein (Scaria et al., 1992).
B = Blue W = White [@]Interactions with all baits except the yeast SNF1 protein were carried out in yeast Strain GGY1::171. Interaction with SNF1 was carried out in yeast strain Y153. *Colonies which appeared on -his, -trp, -leu plates after 6–8 days. Results of X-gal staining are indicated as B, blue; W, white; or ND, not done. The heterologous baits pLAM5 (human lamin) and pAS-SNF1 (yeast SNF1) have been described (Bartel et al., 1993, Durfee et al., 1993). Baits pHIV-1 Rev, pHIV-1 Tat, pHIV-1 Nef and pHTLV-1 Rex expressing the various HIV or HTLV regulating proteins were constructed as described herein and obtained from Cleta D'Sa Eipper and T. Subramanian, St. Louis University Medical Center, St. Louis, MO.

[1] = biological target: GAL4 DNA binding domain alone (vectors pMA424 or pAS1) (yeast, UniProt P04386); experiment: yeast two-hybrid with the empty GAL4 DNA binding domain vectors
[2] = biological target: human Bax (two-hybrid partner) (human, UniProt Q07812); experiment: yeast two-hybrid

Row | Binder | binding result (yeast SNF1 protein bait) | binding result [1] | binding result [2]
1 | Nip2 (19K-interacting protein 2), protein coded by cDNA clone 44, tagged with the GAL4 activation domain (other) MEGVELKEEWQDEDFPIPLPEDDSIEADILAITGPEDQPGSLEVNGNKVRKKLMAPDISLTLDPSDGSVLSDDLDESGEIDLDGLDTPSENSNEFEWEDDLPKPKTTEVIRKGSITEYTAAEEKEDGRRWRMFRIGEQDHRVDMKAIEPYKKVISHGGYYGDGLNAIVVFAVCFMPESSQPNYRYLMDNLFKYVIGTLELLVAENYMIVYLNGATTRRKMPSLGWLRKCYQQIDRRLRKNLKSLIIVHPSWFIRTLLAVTRPFISSKFSQKIRYVFNLAELAEL | no binding | no binding | –
2 | Nip1 (19K-interacting protein 1), protein coded by cDNA clone 22, tagged with the GAL4 activation domain (other) PQDVHVRICNQEIVKFDLEVKALIQDIRDCSGPLSALTELNTKVKEKFQQLRHRIQDLEQLAKEQDKESEKQLLLQEVENHKKQMLSNQASWRKANLTCKIAIDNLEKAELLQGGDLLRQRKTTKESLAQTSSTITESLMGISRMMAQQVQQSEEAMQSLVTSSRTILDANEEFKSMSGTIQLGRKLITKYNRRELTDKLLIFLALRLFLATVLYIVKKRLFPFL | – | no binding | no binding
